Here are results for one molecule from publication PMC3405102, “Solution Structure of the LIM-Homeodomain Transcription Factor Complex Lhx3/Ldb1 and the Effects of a Pituitary Mutation on Key Lhx3 Interactions” (PLoS ONE, 2012).

This test deals with T1, Lhx3 LIM1+2 as it stands in the tethered complex Ldb1-Lhx3 (mouse, UniProt P50481-1 28-153).
T1 construct: Lhx3 (LIM homeobox protein 3), mouse, both LIM domains, residues 28-153; source: part of the tethered Ldb1-Lhx3 chain
T1 sequence (looked up): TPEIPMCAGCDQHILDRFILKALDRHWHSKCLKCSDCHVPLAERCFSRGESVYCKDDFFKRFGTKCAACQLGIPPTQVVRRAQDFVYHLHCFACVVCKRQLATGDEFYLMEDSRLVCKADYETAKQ
The test can be described thus: SAXS; Ldb1-Lhx3 tethered complex at 4.5 mg mL^-1 in 20 mM Na2HPO4, 40 mM NaCl, 1 mM DTT, pH 6.8, 283 K; mass from I(0), Guinier analysis, DAMMIF and BUNCH modelling. As to conditions: both partners purified.

B1: Ldb1LID as it stands in the tethered complex Ldb1-Lhx3 (domain or fragment, mouse, UniProt P70662-3 300-339, looked up)
chain: DVMVVGEPTLMGGEFGDEDERLITRLENTQFDAANGIDDE
notes: numbers count on: isoform P70662-3; source: part of the tethered Ldb1-Lhx3 chain
With B1, the binding result is reported as “binds”.
